# Test results: patent publication US20210024607A1, “EXPRESSION VECTORS FOR CHIMERIC ENGULFMENT RECEPTORS, GENETICALLY MODIFIED HOST CELLS, AND USES THEREOF” (CERo Therapeutics, Inc., priority 2018, published 2021)
# Columns and labels:
# [1] = system: phosphatidylserine-coated beads; assay: Phagocytic uptake of phosphatidylserine-coated latex beads; assay type: cell-based, human; conditions: 30 minutes incubation, transduced CD8+ T cells
# From the text: Streptavidin coated latex beads were bound with biotin-phosphatidylserine and used for phagocytosis assays.
# [2] = system: HPV+ SCC152 head and neck cancer cells; assay: FACS phagocytosis assay with pHrodo-labeled SCC152 cells; assay type: cell-based, human; conditions: CellTrace-violet labeled T cells, compared with mock transduced T cells
# Experimental: CellTrace-violet labeled mock transduced, HPV E7-TCR transduced T cells, and HPV E7-TCR/CER29 tandem expression cassette transduced T cells were co-cultured pHrodo-red labeled HPV+SCC152 head and neck cancer cells.
# The ability of CER modified-T cells to engulf target cells and recapitulate engulfment-signaling events was evaluated in co-culture assays. T cells were transduced with a nucleic acid encoding HPV E7 specific TCR (polypeptide sequence comprising SEQ ID NO:158) or tandem expression cassette encoding HPV E7 specific TCR+ CER29 (polypeptide sequence comprising SEQ ID NO:169). pHrodo-labeled HPV+ SCC152 head and neck cancer cells were co-incubated with mock transduced T cells, HPV E7 TCR transduced T cells, or HPV E7 TCR/CER29-transduced T cells.
molecule,measurement,setting,value
"HPV16 E7 TCR: HPV16 E7 specific TCR (WO2015/184228), SEQ ID NO:90; control transduced alone into T cells (protein, HPV16 E7 TCRbeta chain-P2A-TCRalpha chain, control transduced alone into T cells) MAPGLLCWALLCLLGAGLVDAGVTQSPTHLIKTRGQQVTLRCSPKSGHDTVSWYQQALGQGPQFIFQYYEEEERQRGNFPDRFSGHQFPNYSSELNVNALLLGDSALYLCASSLGWRGGRYNEQFFGPGTRLTVLEDLRNVTPPKVSLFEPSKAEIANKQKATLVCLARGFFPDHVELSWWVNGKEVHSGVCTDPQAYKESNYSYCLSSRLRVSATFWHNPRNHFRCQVQFHGLSEEDKWPEGSPKPVTQNISAEAWGRADCGITSASYQQGVLSATILYEILLGKATLYAVLVSTLVVMAMVKRKNSRAKRSGSGATNFSLLKQAGDVEENPGPMWGVFLLYVSMKMGGTTGQNIDQPTEMTATEGAIVQINCTYQTSGFNGLFWYQQHAGEAPTFLSYNVLDGLEEKGRFSSFLSRSKGYSYLLLKELQMKDSASYLCASVDGNNRLAFGKGNQVVVIPNIQNPEPAVYQLKDPRSQDSTLCLFTDFDSQINVPKTMESGTFITDKCVLDMKAMDSKSNGAIAWSNQTSFTCQDIFKETNATYPSSDVPCDATLTEKSFETDMNLNFQNLLVIVLRILLLKVAGFNLLMTLRLWSS",uptake of phosphatidylserine-coated latex beads,[1],do not exhibit uptake of latex beads coated with phosphatidylserine
same,phagocytosis of pHrodo-labeled SCC152 cells by FACS,[2],no difference in phagocytosis between mock-transduced T cells and E7 TCR transduced T cells
